Assay [1] concerns β-catenin. In words: PTN-stimulated tyrosine phosphorylation of β-catenin in COS-7 cells (immunoprecipitation, Western blot). It counts as cell-based. On the procedure:
FIG. 1: FIG. 1 illustrates in (A) PTN stimulation of tyrosine phosphorylation of β-catenin in cells that express RPTPβ/ζ and ALK. COS7 cells transiently expressing ALK and RPTPβ/ζ were stimulated with 10 ng PTN/ml. Cell lysates were prepared and used to immunoprecipitate β-catenin. The immunoprecipitates were analyzed in Western blots probed with anti-phosphotyrosine antibodies. Lane 1, cells transfected with ALK that were not stimulated with PTN. Lane 2, cells transfected with ALK stimulated with PTN. Lane 3, cells transfected with empty vector not stimulated with PTN. Lane 4, cells transfected with empty vector stimulated with PTN. […] The immunoprecipitates were analyzed in Western blots probed with anti-phosphotyrosine antibodies. […] Cell lysates were used to immunoprecipitate β-catenin and the immunoprecipitates were analyzed in Western blots probed with anti-phospho-tyrosine antibodies and reprobed with anti-β-catenin antibodies. […] MCF-7 cells that stably express EGFR/RPTPβ/ζ not transfected with ALK were analyzed as above. […] Lysates of MCF-7 cells and lysates of MCF-7 cells stimulated with EGF were used to immunoprecipitate β-catenin and the immunoprecipitates were analyzed in Western blots probed with anti-phospho-tyrosine antibodies and separately with anti-β-catenin antibodies. […]

Assay [2] relates to β-catenin. In words: phosphorylation of serines 33, 37 and threonine 41 in β-catenin in HUVS cells. As to conditions: 2 minutes after PTN. It counts as cell-based, human. On the procedure:
FIG. 11: FIG. 11 illustrates: human umbilical vein stromal cells not stimulated or stimulated with 50 ng/ml of PTN for 2, 5, 10 or 20 minutes were used to prepare cell lysates that were analyzed in Western blots probed with anti-phospho threonine 308 Akt (panel A), anti-phospho serine 473 Akt (panel B), anti-phospho-serine 9 GSK3β (panel C), anti-phospho-serine 33, 37 and […] β-catenin (panel D) or anti-actin antibodies (panel E). Akt was immunoprecipitated from those lysates using anti-Akt antibodies, incubated with a fusion peptide containing the 20 N-terminal amino acids of GSK3β and analyzed in Western-blots probed using anti-phospho-serine 9 GSK3β antibodies (panel F).
A key function of activated GSK3β in the pathway of β-catenin translocation into the nuclei is to phosphorylate β-catenin serines 33, 37 and threonine 41. […] The levels of phosphorylation of serine 33, 37 and threonine 41 in β-catenin were therefore measured in Western blots of lysates from PTN-stimulated cells probed with anti-β-catenin antibodies that recognize phosphoserines 33, 37 and threonine 41. […] In the control study, β-catenin phosphorylated in serines 33, 37 and threonine 41 was readily detected when the cells are not stimulated with PTN. […]

B1: pleiotrophin (protein, UniProt P21246 33-168, looked up)
Pleiotrophin: GKKEKPEKKVKKSDCGEWQWSVCVPTSGDCGLGTREGTRTGAECKQTMKTQRCKIPCNWKKQFGAECKYQFQAWGECDLNTALKTRTGSLKRALHNAECQKTVTISKPCGKLTKPKPQAESKKKKKEGKKQEKMLD
With B1, the “tyrosine phosphorylation of β-catenin” value in assay [1] (COS-7 cells expressing RPTPβ/ζ alone) was “failed to stimulate”. The “increased tyrosine phosphorylation of β-catenin” value in assay [1] (COS-7 cells expressing both ALK and RPTPβ/ζ, 10 ng PTN/ml) was “about 3 fold”. For the same molecule, the “phosphorylation of serines 33, 37 and threonine 41 in β-catenin” value in assay [2] is “sharply decreased”.

The values above are taken from US20210009673A1, “METHODS FOR REGULATING BREAST CANCERS” (priority 2018, published 2021).
